Assay results: article PMC9239242 (mBio, 2022)

B1: VP882 Orf61 (Orf61 from Vibrio phage VP882) (natural protein)
chain: SDIADQAQDVIEQHLTASLANRKHNINPAIPSAKHCDDCESEIPEARRRSLPGVRLCVDCASLQEIKGRHQR
B2: λ Orf73 (Orf73 from bacteriophage lambda) (natural protein)
chain: ADIIDSASEIEELQRNTAIKMRRLNHQAISATHCCECGDPIDERRRLVVQGCRTCASCQEDLELISKQRGSK
B3: VHML Orf8 (Orf8 from Vibrio phage VHML) (natural protein)
chain: MTDCSADPLDRAAALSQAHLEVSLSRIKKFEGVSAHECVECGSEIPKKRRELLQGVTDCVDCAAIKETLSKNYMR

Key:
[1] = target: T1, E. coli RNA polymerase holoenzyme (native) (E. coli, UniProt P0A8V2 1-1342; P0A8T7 1-1407; P00579 1-613; P0A7Z4 1-329; P0A800 1-91); conditions: both partners purified
T1 construct: also called Eσ^70; source: native holoenzyme purified from E. coli as described elsewhere (58, 59)

[2] = target: T1, E. coli RNA polymerase holoenzyme …; test: cell-based or functional assay

Row | Binder | IC50 [1] [nM] | IC50 for inhibition of rrnB P1 transcription, multiround in vitro transcription with E. coli RNAP (4 nM to 2,000 nM factor) [2] [nM]
1 | B1 | 1700 | 270
2 | B2 |  | ~50
3 | B3 | 3000 | 800
